# Measurements: the RNAGym collection of RNA variant scans (doi:10.1073/pnas.2313332121)
# B1: TPR t1 (parent)
# chain: GACCAAUCUGCCCUCAGAGCUCGAGAACAUCUUCGGAUGCAGAGGAGGCAGGCUUCGGUGGCGCGAUAGCGCCAACGUCCUCAACCUCCAAUGCAUCCCACCACAUGAUGAUGCCUGAAGAGCCUUGGUUUUUUG
# Variants of: B1
# Assay: polymerase ribozyme fitness, log enrichment relative to wild type (log ratio); higher = more active; in vitro selection for triplet polymerase activity
# Procedure, shortened: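 Each subunit of a heterodimeric triplet polymerase ribozyme was mutagenized into a library by PCR, transcribed, and subjected to one round of in vitro selection, run in triplicate. Libraries were annealed with a biotinylated primer, the partner subunit and triplets, incubated frozen at −7 °C, and extended constructs were gel-excised, captured on streptavidin beads and recovered by RT-PCR. Input and output libraries were sequenced on Illumina, keeping genotypes with ≥10 input reads and ≥1 read per output. Fitness is log base 2 of genotype enrichment divided by wild-type enrichment, from inverse-variance-weighted replicate averages.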
row,Variant,polymerase ribozyme fitness (log ratio)
1,GACCAAUCUGCCCUCAGAGCUCGAGAACUUCUUCGGAUGCAGAGGAGGCAGGCUUCGGUGGCGCGAUAGCGCCAUCGUCCUCGACCUCCAAUGCAUCCCACCACAUGAUGAGGCCUGAAGAGCCUUGGUUUUCUG [A29U A75U A83G U112G U133C],-2.19
2,GACCAAUCUGCCCUCAGAGCUCGAGAACUUCUUCGGAUGCAGAGGAGGCAGGCUUCGGUGGCGCGAUAGCGUCAACGUCCUCAACCUCCAAUGCAUCCCACCACAUGAUGAUGCCUGAAGAGCCUUGGUUUUUUG [A29U C72U],-2.19
3,GACCAAUCUGCCCUCAGAGCUCGAGAACUUCUUCGGAUGCAGAGGAGGCAGGCUUCGGUGGUGCGAUAGCGCCAACGUCCUCAACCUCCAAUGCAUCCCACCACAUGAUGAUGCCUGAAGAGCCUUGGUUUUUUG [A29U C62U],-1.3
4,GACCAAUCUGCCCUCAGAGCUCGAGAACUUCUUCGGAUGCAGGGGAGGCAGGCUUCGGUGUCGCGAUAGCGCCAACGUCCUCAACCUCCAAUGCAUCCCACCACAUGAUGAUACCUGAAGAGACUAGGUUUUUCG [A29U A43G G61U G113A C123A U126A U134C],-3.47
5,GACCAAUCUGCCCUCAGAGCUCGAGAACUUCUUCGGAUGCAGAGGGGGCAGGCUUCGGUGGCGCGAUAGCGCCAACGUCCUCAACCUCCAAUGCAUCCCACCACAUGAUGAUGCCUGAAGAGCCAUGGUUUUUUG [A29U A46G U125A],-2.44
6,GACCAAUCUGCCCUCAGAGCUCGAGAACUUCUUCGGAUGCAGAGGAGGCCGGCUUCGGUGGCGCGAUAGCGCCAACGUCCUCAACCUCCAAUGCAUCUCACCACAUGAUGAUGCCUGAAGAGCCUUGGUUUUUUG [A29U A50C C98U],-3.99
7,GACCAAUCUGCCCUCAGAGCUCGAGAACUUCUUCGGAUGCAGAGGAGGCAGACUUCGGUGGCGCGAUAGCGCCAACGUCCUCAACCUCCAAUGCAUCCCACCACAUGAUGAUACCUGAAGAGCCUUGGUUUUUUG [A29U G52A G113A],-2.09
8,GACCAAUCUGCCCUCAGAGCUCGAGAACUUCUUCGGAUGCAGAGGAGGCAGGCUUCGGUGGCGCGAUAGCGCCAACGUCCUCAACCUCCAAUGCAUCCCACCACAUGAUGAUGCCUGAAGAGACUUGGUUUUUUG [A29U C123A],-1.43
9,GACCAAUCUGCCCUCAGAGCUCGAGAACUUCUUCGGAUGCAGAGGAGGCAGGCUUCGGUGGCGCGAUAUCGCCAACGUCCCCAACCUCCAAUGCAUCCCUCCACAUGAUGAUGCCUGAAGAGCAUUGGUUUUUUG [A29U G69U U81C A100U C124A],0.115
10,GACCAAUCUGCCCUCAGAGCUCGAGAACUUCUUCGGUUGUAGAGGAGGCAGGCUUCGGUGGCGCGAUAGCCCCAACGUCCUCAACCUCCAAUGCAUCCCACCACAUGAUGAUGCCUGAAGAGCCUUGGUUUUUUG [A29U A37U C40U G71C],-2.78
11,GACCAAUCUGCCCUCAGAGCUCGAGAACUUCUUCGGAUGCAGAGGAGGGAGGCUUCGGUGGCGCGAUAGCGCCAACGUCCUCAACCUCCAAUGCAUCCCAGCACAUGAUGAUGCCUGAAGAGCGUUGGUUUUUUG [A29U C49G C101G C124G],-3.93
12,GACCAAUCUGCCCUCAGAGCUCGAGAACUUCUUCGGAUGCAGAGGAGGCAGGCUUCGAUGGCGCGAUAGCGCCAACGUCCUCAACCUCCAAUGCAUCCCACCACAUGAUGAUGCUUGAAGAGCCUUGGUUUUUUG [A29U G58A C115U],-2.3
13,GACCAAUCUGCCCUCAGAGCUCGAGAACUUCUUCGGAUGCAGGGGAGGCAGGCCUCGGUGGCACGAUAGCGCCAACGUCCUCAACCUCCAAUGCAUCCCACCACAUGAUGAUGCCUCAAGAGCCUUGGUUUUUUG [A29U A43G U54C G63A G117C],-7.13
14,GACCAAUCUGCCCUCAGAGCUCGAGAACUUCUUCGGAUGCAGAGGAGGCAGGCUUGGGUGGCGCGUUAGCGCCAACGUCCUCAACCUCCAAUGCAUCCCACCACAUGAUGAUGCCUGAAGAGCCUUGGUUUUUUG [A29U C56G A66U],-3
15,GACCAAUCUGCCCUCAGAGCUCGAGAACUUCUUCGGAUGCAGAGGAGGCAGGCUUCGGUGGCGCGAUAGCGUCAACGUCCUCAACCUCCAAUGCAUCCCACCAUAUGAUGAUGCCUGAAGAGCCUUGGUUUUUUG [A29U C72U C104U],-1.81
16,GACCAAUCUGCCCUCAGAGCUCGAGAACUUCUUCGGAUGCAGAGGAGGCAGGCUUCGGUGACGCGAUAGCGCCAACGUCCUGAACCUCCAAUGCAUCCCACCACAUGAUGAUGCCCGAAGAGCCAUGGUUUUUUG [A29U G61A C82G U116C U125A],-3.67
17,GACCAAUCUGCCCUCAGAGCUCGAGAACUUCUUCGGAUGUAGAGGAGGCAGGCUUCGGUCGCGCGAUAGCGCCAACGUCCUCAACCUCCAAUGCAUCCCACCACAUGAUGAUGCCUGAAGAGCCUUGGUUAUUUG [A29U C40U G60C U131A],-2.41
18,GACCAAUCUGCCCUCAGAGCUCGAGAACUUCUUCGGAUGCAGAGGGGGCAGGCUUCGGUGGCGCGAUAGCGCCAACGUCCUCAACCUUCAAUGCAUGCCACCACAUGAUGAUGCCUGAAGAGCCUUGGUUUUUUG [A29U A46G C88U C97G],-4.71
19,GACCAAUCUGCCCUCAGAGCUCGAGAACUUCUUCGGAUGCACAGGAGGCAGGCUUCGGUGGCGCGGUAGCGCCAACGUCCUCAACCUCCAAUGCAUCCCACCACAUGAUGAUGCCUGAUGAGCCUUGGUUUUUUG [A29U G42C A66G A119U],-4.64
20,GACCAAUCUGCCCUCAGAGCUCGAGAACUUCUUCGGAUGCAGAGGAGACAGGCUUCGGUGGCGCGAUAGCGCCAACGUCCUCAACCUCCAACGCAUCCCAUCACAUGAUGAUGACUGAAGAGCCUUGGUUUUUUG [A29U G48A U92C C101U C114A],-5.72
21,GACCAAUCUGCCCUCAGAGCUCGAGAACUUCUUCGGAUGCAGAGGAGGCAGGCUUCGGUGGCGCGAUAGCGUCAACGUCCUCAACCUCCAAUGCAUCUCACCACAUGAUGCUGCCUGAAGAGCCUUGGUUUUUUG [A29U C72U C98U A111C],-3.77
